1 molecule from patent US20020127594A1 (Takeda / Millennium, published 2002) can be followed below.

In this assay the target is p185 (erbB2), 185 kDa receptor-type tyrosine kinase of the EGFR family, in MDA-MB453 breast adenocarcinoma … (UniProt P04626 23-1255, limits assumed). As to the kind of experiment: cell-based or functional assay.

B1: Don-1 EGF domain-containing fusion polypeptide (EGF domain and flanking amino acids 85-154 of murine Don-1, C-terminal Flag epitope tag), secreted by … (ligand, not shown: small tags and cut ends)
chain: LHVNSVSTTLSSWSGHARKCNETAKSYCVNGGVCYYIEGINQLSCKCPNGFFGQRCLEKLPLRLYMPDPK
For B1, the “phosphorylation of the 185 kDa protein in MDA-MB453 cells (antiphosphotyrosine Western blot)” value is around 10 fold.
